Test results reported in the supplement of paper PMC12764529.
± gives the half width of the 95% confidence interval.

Experiments:
[1] = folding stability dG unfold from trypsin proteolysis; higher = more stable
Outline: (§1)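 Designed mini-proteins (under 80 residues, no cysteine) in a PA-tagged cDNA display construct were digested with trypsin and chymotrypsin. Each protease was used at 11 concentrations (threefold dilutions) plus a no-protease condition, followed by sequencing. K50 was inferred by Bayesian fitting of sequencing counts, and unfolding free energy was derived against a sequence-predicted unfolded-state K50 and a shared folded-state K50, per protease or combined. Only designs with AlphaFold2 dimer inter-PAE above 15 were kept.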

[2] = folding stability dG unfold from chymotrypsin proteolysis; higher = more stable
Outline: as §1

[3] = folding stability dG unfold (combined trypsin and chymotrypsin); higher = more stable
Outline: as §1

| Sequence | folding stability dG unfold [1] | folding stability dG unfold [2] | folding stability dG unfold [3] |
| --- | --- | --- | --- |
| SAGGSAGMNRVSLKPLPDGTYEVTITYPDGSTSTYTVPGPAVSLEEILKRLNIPESIEVEDVEPLGSAGGSA [r15_167_JUSTAS] | 2.64 ± 0.089 kcal/mol | 3.87 ± 0.059 kcal/mol | 3.52 ± 0.075 kcal/mol |
| SAGGSAGMPDIIYKVKITVTSSGKVTTLDITLPSEEEVKKAIEELKKKGYTNIKPEIEKFLKSELGSAGGSA [r15_1015_JUSTAS] | 1.15 ± 0.12 kcal/mol | 2.13 ± 0.066 kcal/mol | 2 ± 0.19 kcal/mol |
| SAGGSAGMPSPVLLDVTIANPDGTTSTVTAPYASPEVAEAYVRENYPDAEVTYDPATGRVSVNVPSSAGGSA [r15_313_JUSTAS] | 2.31 ± 0.092 kcal/mol | 2.09 ± 0.033 kcal/mol | 2.2 ± 0.054 kcal/mol |
| SAGGSAGMTVTKTFTLPGYKVELTTHPGLPPDAPVTIEVTLTPPDGSVVKSTRTVLARPDDPSVLLSAGGSA [r15_10_JUSTAS] | 2.15 ± 0.13 kcal/mol | 2.73 ± 0.12 kcal/mol | 2.46 ± 0.16 kcal/mol |
| SAGGSAGMVSLTTTTTPVETRTLPDGTVVTLEKTELPDDTVVLTTTTTDPATGEVTTETTTVSLAGSAGGSA [r15_401_JUSTAS] | 0.409 ± 0.026 kcal/mol | 1.11 ± 0.022 kcal/mol | 0.884 ± 0.11 kcal/mol |
| SAGGSAGNPVPKVTVTDVTFGIPESDPSLLEKKAEEVAAELNKPELTVTITEYDPATYTFTITVVSSAGGSA [r15_563_JUSTAS] | 0.648 ± 0.021 kcal/mol | 1.89 ± 0.07 kcal/mol | 1.48 ± 0.059 kcal/mol |
| SAGGSAGPTTTPTTYARITATLRKGGETITVELEVPTSVVEEAVEALAKELGVEIEKVEVTLTEERSAGGSA [r15_535_JUSTAS] | 2.08 ± 0.027 kcal/mol | 2.4 ± 0.042 kcal/mol | 2.3 ± 0.08 kcal/mol |
| SAGGSAGQKIQIERVQWNPEEGYFFIRIRYPGNGREIEHHIRLDNIEIELPPGAKITDIEIYPLPNSAGGSA [r15_959_TrROS] | 1.8 ± 0.079 kcal/mol | 1.83 ± 0.12 kcal/mol | 1.96 ± 0.13 kcal/mol |
| SAGGSAGSLSPIGEHPYTLPDGSRITVPIYRDPATGEIVVEVETETEEEDISEKAEEYAEKVREALSAGGSA [r15_529_JUSTAS] | -0.0147 ± 0.048 kcal/mol | -0.571 ± 0.45 kcal/mol | -0.25 ± 0.14 kcal/mol |
| SAGGSAGSMPVEVTVTITVKDKNGTVLGTFPIKITVTSEEELEAKIKELKEKLKKEGYIVEKVDVVSAGGSA [r15_1054_JUSTAS] | 3.85 ± 0.17 kcal/mol | 2.65 ± 0.041 kcal/mol | 3.24 ± 0.091 kcal/mol |
| SAGGSAGTITIMFPIPPGKEVKMKFLFYIPDGYIFNVDITQTGPGYITITIPIYRLPENAKDPDLISAGGSA [r15_909_TrROS] | 3.2 ± 0.3 kcal/mol | 4.78 ± 0.18 kcal/mol | 4.43 ± 0.26 kcal/mol |
| SAGGSAGTVKFKQPFPFYDPGNGWPFPIDIKITVEYKPDPNGEPKWQITKIEIKMPEGSPALKDLISAGGSA [r15_258_TrROS] | 1.82 ± 0.11 kcal/mol | 2.24 ± 0.048 kcal/mol | 2 ± 0.14 kcal/mol |
| SAGGSAGVKSSSPNGLTLEFPFESEEEVEEAVKEIKKAFPENYEVKIEIEKSEKILKVKIIVKKKDSAGGSA [r15_80_TrMRF] | 1.08 ± 0.04 kcal/mol | 2.14 ± 0.061 kcal/mol | 1.9 ± 0.091 kcal/mol |
| SAGGSAGVVKGRIEITFVVPPDAPGVEELARETVKRIGFDAENVEILKVERLPDGSYRVTLLLDAPSAGGSA [r15_654_TrMRF] | 3.17 ± 0.059 kcal/mol | 4.47 ± 0.052 kcal/mol | 4.21 ± 0.071 kcal/mol |
| SAGGSAGWVTFDILFPGKTIEEAKEFIEQIPPEFMNNIKKIEIDEIHPVGGWYHVTLTIEVPPGMKSAGGSA [r15_244_TrROS] | 0.743 ± 0.14 kcal/mol | 2.06 ± 0.049 kcal/mol | 1.71 ± 0.16 kcal/mol |
| SAGGSAIEPGQKVLVLFPEDGGLATLTFDPTTRTVEIEVGGERRTYPVDSLQDVLDELGAEVLSTDSAGGSA [r15_500_TrMRF] | 2.12 ± 0.037 kcal/mol | 1.74 ± 0.037 kcal/mol | 1.82 ± 0.072 kcal/mol |
| SAGGSAIPFPPGAKVKKIEMHEKKDDNKPRYVMIIKWEGGNIMVFQMDPGDGNFKPIGWVPLDDLKSAGGSA [r15_777_TrROS] | 0.508 ± 0.07 kcal/mol | 2.33 ± 0.058 kcal/mol | 1.95 ± 0.12 kcal/mol |
| SAGGSAIPPDNVKEEREITDPDDDTKIKVWRYPNDGRYWVQVYNKKGEPKWKQLGPMPANQAEDLISAGGSA [r15_295_TrROS] | 0.0985 ± 0.35 kcal/mol | -0.31 ± 0.38 kcal/mol | -0.057 ± 0.23 kcal/mol |
| SAGGSAISEEEPFVKIKVELESEPKEIILPKSDIVKIEVDEPDKIATIYLPSTGKFFPFKVLSVENSAGGSA [r15_495_TrMRF] | 0.332 ± 0.079 kcal/mol | -0.343 ± 0.44 kcal/mol | -0.0342 ± 0.27 kcal/mol |
| SAGGSAITLEDLKNAEIVKPEVMPFPDNGMWMPTWKLRDPGNGKEFVFTFMYNPGNGEPQWSLVPVSAGGSA [r15_170_TrROS] | 1.16 ± 0.053 kcal/mol | 1.36 ± 0.1 kcal/mol | 1.2 ± 0.15 kcal/mol |
